Assay results as given in US20230329245A1, “COMPOSITIONS AND METHODS OF USE THEREOF” (Curie Co. Inc., priority 2020, published 2023).
Where “and” joins values, the source holds several entries; their conditions need not be identical. Equal values may be shown once.

Assays:
Type in all cases: cell-based
[1] = system: Yeast or bacterial starter cultures; assay: Tgase biocidal activity on yeast or bacterial cultures (Example 2); settings: where biocidal activity could be observed with both enzymes
Method: A variant form of Streptomyces mobaraensis transglutaminase having the amino acid sequence depicted in SEQ ID NO:6 was prepared by literature methods (Javitt, et al. (2017) BMC Biotechnol. 17:23) as previously described. Tgase activity was measured using the colorimetric hydroxamate activity assay (Folk and Cole (1965) J Biol Chemistry 240(7):2951-2960). Tgase cytotoxic activity was assessed either using OD600 or a commercially available kit (BacTiter-Glo™, Promega®, following manufacturer's protocol).
Yeast or bacterial starter cultures were grown as described previously. Tgase (SEQ ID NO:6) was added to each culture at 0.001-1 weight percent. The cultures were grown overnight at 30° C.-37° C. and growth curves were measured by a BioTek® Synergy Plate Reader.

[2] = system: C. parapsilosis ATCC 22019; assay: Minimum fungicidal concentration (MFC), C. parapsilosis; settings: no colonies recovered, duplicate, listed as Tgase variant (SEQ ID NO: 6)
E. coli ATCC 8739 = assay: Growth inhibition of E. coli culture in LB (OD600 / BacTiter-Glo); settings: E. coli ATCC 8739; 950 μg/mL
Method: For MIC determination of bacterial cultures, E. coli ATCC 8739, DH5-alpha, DH10-beta, and B. subtilis BGSC 1A1276 was grown overnight (16-18 hours) in LB broth at 37° C. The following day, the cell density of the saturated cultures was calculated using OD600 and cultures were diluted to 10^4 to 10^6 CFU/mL in sterile LB media to generate the inoculum, and 90 μL of the inoculum was combined with 10 μL of serially diluted Tgase SEQ ID NO:1 at a range of 0.0001-0.01 weight percent in the presence or absence of 0.003% lysozyme (100-fold lower than the effective concentration). Growth curves were measured by OD600 on a BioTek® Synergy Plate Reader. Optionally, the following day, a cell viability assay such as BacTiter-Glo™ (Promega®) following manufacturer's protocols) could be used to assess cell viability. A decrease in OD600 or luminescence indicated a decrease in cell viability. Results are presented as a percent reduction in cell count relative to an untreated culture. All test conditions were performed in triplicate.
E. coli ATCC 8739 was grown overnight in LB broth at 37° C. The following day, the cell density of the saturated cultures was calculated using OD600 and cultures were diluted to 10^4 to 10^6 CFU/mL in sterile LB media to generate the inoculum, and 90 μL of the inoculum was combined with 10 μL of serially diluted Tgase SEQ ID NO:6 at a range of 0.001-0.1 weight percent in the presence or absence of chemical preservatives at concentrations above and below the calculated MIC value. A single concentration (at the MIC) of the chemical preservative and static concentrations of Tgase SEQ ID NO:6 (400 μg/mL, 0.04% w/v) are presented in Table 8 as representative examples. Growth curves were measured by OD600 on a BioTek® Synergy Plate Reader and a cell viability assay (BacTiter-Glo™, Promega®, following manufacturer's protocols) was used to assess cell viability. A decrease in OD600 or luminescence indicated a decrease in cell viability. Results are presented as a percent reduction in cell count relative to an untreated culture. […]

S. aureus ATCC 6538 = assay: MIC determination, S. aureus; settings: CAMHB pH 7.3, 37° C., 18 to 20 hours, duplicate
Method: A variant form of Streptomyces mobaraensis transglutaminase having the amino acid sequence depicted in SEQ ID NO:6 was prepared by literature methods with a hexa-his-tag to aid in purification (Javitt, et al. (2017) BMC Biotechnol. 17:23). The cells were grown in shake flasks, lysed by homogenization, and the Tgase variant (SEQ ID NO:6) was isolated from the cell debris by centrifugation. The resulting semi-purified enzyme (clarified lysate) were compared on an SDS-PAGE gel, by spectroscopy, and activity for concentration of active enzyme. The Tgase variant (SEQ ID NO:6) was further purified by affinity column on a Ni-IMAC resin prior to MIC assay. Tgase activity was measured in the examples herein using a colorimetric hydroxamate activity assay (Folk and Cole (1965) J Biol Chemistry 240(7):2951-2960). The enzyme was diluted to a working stock concentration of 2 mg/mL in CAMHB or RPMI media (bacterial or fungal media). This was then 2-fold serial diluted ten times in the appropriate media in a 96-well master plate to generate 2× starting concentrations for MIC testing.
Strains were acquired from the American Type Culture Collection (ATCC) (Manassas, VA) and maintained as −80° C. frozen glycerol stocks: S. aureus ATCC 6538, E. coli ATCC 8739, P. aeruginosa ATCC 9027, C. albicans ATCC 10231, and A. brasiliensis ATCC 16404. […]

[3] = system: C. parapsilosis ATCC 22019; assay: MIC determination, C. parapsilosis; settings: duplicate, listed as Tgase variant (SEQ ID NO: 6)
C. albicans ATCC 10231 = assay: Minimum fungicidal concentration (MFC), C. albicans; settings: no colonies recovered on SDA, duplicate, listed as Tgase variant (SEQ ID NO: 6)
Method: Minimum fungicidal concentration (MFC) was determined by plating 10 microliters of liquid from each MFC test solution on the appropriate agar media for each test strain. The liquid was allowed to air dry in a biosafety cabinet, then the agar plates were incubated under the appropriate conditions: A. brasiliensis and C. albicans were grown on Sabouraud Dextrose Agar (SDA) plates. A. brasiliensis was grown at 25° C. for 5 to 7 days, while C. albicans was grown at 37° C. for 24 to 48 hours. Colony formation was then assessed. MFC is defined as the lowest concentration of the Tgase (SEQ ID NO:6) in which no colonies were recovered.

B1: Tgase (SEQ ID NO: 6): variant Streptomyces mobaraensis transglutaminase (SEQ ID NO:2) with N-terminal Methionine, C-terminal peptide linker and hexa-His-Tag (protein)
chain: MDPDDRVTPPAEPLDRMPDPYRPSYGRAETVVNNYIRKWQQVYSHRDGRKQQMTEEQREWLSYGCVGVTWVNSGQYPTNRLAFASFDEDRFKNELKNGRPRSGETRAEFEGRVAKESFDEEKGFQRAREVASVMNRALENAHDESAYLDNLKKELANGNDALRNEDARSPFYSALRNTPSFKERNGGNHDPSRMKAVIYSKHFWSGQDRSSSADKRKYGDPDAFRPAPGTGLVDMSRDRNIPRSPTSPGEGFVNFDYGWFGAQTEADADKTVWTHGNHYHAPNGSLGAMHVYESKFRNWSEGYSDFDRGAYVITFIPKSWNTAPDKVKQGWPLEHHHHHH
potency relative to Tgase SEQ ID NO:1 [1]: 10 fold | MFC [2]: 250 µg/mL and 125 µg/mL | growth inhibition (E. coli ATCC 8739): 85.0% | MIC (S. aureus ATCC 6538): >1,000 μg/mL | MIC [3]: 250 µg/mL and 125 µg/mL | MFC (C. albicans ATCC 10231): 31.25 µg/mL and 62.5 µg/mL
